Source: the supplement of paper PMC5998384

Experiments:
[1] = system: HeLa Kyoto; test: thermal stability score vs G1/S (z-score of summed log2 fold changes over temperatures); higher = more thermally stable than in G1/S
[2] = system: HeLa Kyoto; test: solubility in G1/S (NP-40 vs SDS abundance) (log2 ratio); higher = more soluble; conditions: cell cycle stage: G1/S
[3] = system: HeLa Kyoto; test: solubility change mitosis vs G1/S (difference of NP-40 vs SDS log2 ratios) (log2 ratio difference); higher = more soluble in mitosis
[4] = system: HeLa Kyoto; test: melting temperature (median over replicates), in situ; higher = more thermally stable
[5] = cell cycle stage: early G1 (4.5 h after nocodazole release)
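For melting temperature (median over replicates), in situ in this document: HeLa Kyoto cells synchronized by double thymidine or nocodazole block, proteins quantified by TMT10plex mass spectrometry, three independent biological replicates.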
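For solubility change mitosis vs G1/S (difference of NP-40 vs SDS log2 ratios) in this document: synchronized HeLa Kyoto cells (double thymidine block for G1/S, nocodazole release for mitosis), protein amounts in NP-40 versus SDS lysates quantified by mass spectrometry, three biological replicates.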
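For solubility in G1/S (NP-40 vs SDS abundance) in this document: HeLa Kyoto cells arrested at G1/S by double thymidine block, proteins quantified by TMT10plex mass spectrometry in mild NP-40 versus SDS extracts, three biological replicates.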
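For thermal stability score vs G1/S (z-score of summed log2 fold changes over temperatures) in this document: synchronized HeLa Kyoto cells, proteins quantified by TMT10plex mass spectrometry, three biological replicates, mitosis taken 0.5 h after nocodazole release, G1/S directly after double thymidine block.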

Row | Sequence | thermal stability score [1, 5] | thermal stability score ([1]; cell cycle stage: mitosis) | solubility in G1/S (log2) [2] | solubility change mitosis (log2) [3] | melting temperature ([4]; cell cycle stage: G1/S) | melting temperature ([4]; cell cycle stage: mitosis)
1 | MGCTVSAEDKAAAERSKMIDKNLREDGEKAAREVKLLLLGAGESGKSTIVKQMKIIHEDGYSEEECRQYRAVVYSNTIQSIMAIVKAMGNLQIDFADPSRADDARQLFALSCTAEEQGVLPDDLSGVIRRLWADHGVQACFGRSREYQLNDSAAYYLNDLERIAQSDYIPTQQDVLRTRVKTTGIVETHFTFKDLHFKMFDVGGQRSERKKWIHCFEGVTAIIFCVALSAYDLVLAEDEEMNRMHESMKLFDSICNNKWFTDTSIILFLNKKDLFEEKITHSPLTICFPEYTGANKYDEAASYIQSKFEDLNKRKDTKEIYTHFTCATDTKNVQFVFDAVTDVIIKNNLKDCGLF [GNAI2] | 0.395 | 0.061 | -0.568 | -0.242 | 53.5 °C | 54.2 °C
2 | MASSEQAEQPSQPSSTPGSENVLPREPLIATAVKFLQNSRVRQSPLATRRAFLKKKGLTDEEIDMAFQQSGTAADEPSSLGPATQVVPVQPPHLISQPYSPAGSRWRDYGALAIIMAGIAFGFHQLYKKYLLPLILGGREDRKQLERMEAGLSELSGSVAQTVTQLQTTLASVQELLIQQQQKIQELAHELAAAKATTSTNWILESQNINELKSEINSLKGLLLNRRQFPPSPSAPKIPSWQIPVKSPSPSSPAAVNHHSSSDISPVSNESTSSSPGKEGHSPEGSTVTYHLLGPQEEGEGVVDVKGQVRMEVQGEEEKREDKEDEEDEEDDDVSHVDEEDCLGVQREDRRGGDGQINEQVEKLRRPEGASNESERD [PEX14] | 0.978 | 1.36 | 0.332 | 0.164 | 53.2 °C | 53.6 °C
3 | MEFYESAYFIVLIPSIVITVIFLFFWLFMKETLYDEVLAKQKREQKLIPTKTDKKKAEKKKNKKKEIQNGNLHESDSESVPRDFKLSDALAVEDDQVAPVPLNVVETSSSVRERKKKEKKQKPVLEEQVIKESDASKIPGKKVEPVPVTKQPTPPSEAAASKKKPGQKKSKNGSDDQDKKVETLMVPSKRQEALPLHQETKQESGSGKKKASSKKQKTENVFVDEPLIHATTYIPLMDNADSSPVVDKREVIDLLKPDQVEGIQKSGTKKLKTETDKENAEVKFKDFLLSLKTMMFSEDEALCVVDLLKEKSGVIQDALKKSSKGELTTLIHQLQEKDKLLAAVKEDAAATKDRCKQLTQEMMTEKERSNVVITRMKDRIGTLEKEHNVFQNKIHVSYQETQQMQMKFQQVREQMEAEIAHLKQENGILRDAVSNTTNQLESKQSAELNKLRQDYARLVNELTEKTGKLQQEEVQKKNAEQAATQLKVQLQEAERRWEEVQSYIRKRTAEHEAAQQDLQSKFVAKENEVQSLHSKLTDTLVSKQQLEQRLMQLMESEQKRVNKEESLQMQVQDILEQNEALKAQIQQFHSQIAAQTSASVLAEELHKVIAEKDKQIKQTEDSLASERDRLTSKEEELKDIQNMNFLLKAEVQKLQALANEQAAAAHELEKMQQSVYVKDDKIRLLEEQLQHEISNKMEEFKILNDQNKALKSEVQKLQTLVSEQPNKDVVEQMEKCIQEKDEKLKTVEELLETGLIQVATKEEELNAIRTENSSLTKEVQDLKAKQNDQVSFASLVEELKKVIHEKDGKIKSVEELLEAELLKVANKEKTVQDLKQEIKALKEEIGNVQLEKAQQLSITSKVQELQNLLKGKEEQMNTMKAVLEEKEKDLANTGKWLQDLQEENESLKAHVQEVAQHNLKEASSASQFEELEIVLKEKENELKRLEAMLKERESDLSSKTQLLQDVQDENKLFKSQIEQLKQQNYQQASSFPPHEELLKVISEREKEISGLWNELDSLKDAVEHQRKKNNDLREKNWEAMEALASTEKMLQDKVNKTSKERQQQVEAVELEAKEVLKKLFPKVSVPSNLSYGEWLHGFEKKAKECMAGTSGSEEVKVLEHKLKEADEMHTLLQLECEKYKSVLAETEGILQKLQRSVEQEENKWKVKVDESHKTIKQMQSSFTSSEQELERLRSENKDIENLRREREHLEMELEKAEMERSTYVTEVRELKDLLTELQKKLDDSYSEAVRQNEELNLLKAQLNETLTKLRTEQNERQKVAGDLHKAQQSLELIQSKIVKAAGDTTVIENSDVSPETESSEKETMSVSLNQTVTQLQQLLQAVNQQLTKEKEHYQVLE [KTN1] | 5.06 | 7.49 | 0.422 | 0.0644 | 50 °C | 50.6 °C
4 | MHRKKVDNRIRILIENGVAERQRSLFVVVGDRGKDQVVILHHMLSKATVKARPSVLWCYKKELGFSSHRKKRMRQLQKKIKNGTLNIKQDDPFELFIAATNIRYCYYNETHKILGNTFGMCVLQDFEALTPNLLARTVETVEGGGLVVILLRTMNSLKQLYTVTMDVHSRYRTEAHQDVVGRFNERFILSLASCKKCLVIDDQLNILPISSHVATMEALPPQTPDESLGPSDLELRELKESLQDTQPVGVLVDCCKTLDQAKAVLKFIEGISEKTLRSTVALTAARGRGKSAALGLAIAGAVAFGYSNIFVTSPSPDNLHTLFEFVFKGFDALQYQEHLDYEIIQSLNPEFNKAVIRVNVFREHRQTIQYIHPADAVKLGQAELVVIDEAAAIPLPLVKSLLGPYLVFMASTINGYEGTGRSLSLKLIQQLRQQSAQSQVSTTAENKTTTTARLASARTLYEVSLQESIRYAPGDAVEKWLNDLLCLDCLNITRIVSGCPLPEACELYYVNRDTLFCYHKASEVFLQRLMALYVASHYKNSPNDLQMLSDAPAHHLFCLLPPVPPTQNALPEVLAVIQVCLEGEISRQSILNSLSRGKKASGDLIPWTVSEQFQDPDFGGLSGGRVVRIAVHPDYQGMGYGSRALQLLQMYYEGRFPCLEEKVLETPQEIHTVSSEAVSLLEEVITPRKDLPPLLLKLNERPAERLDYLGVSYGLTPRLLKFWKRAGFVPVYLRQTPNDLTGEHSCIMLKTLTDEDEADQGGWLAAFWKDFRRRFLALLSYQFSTFSPSLALNIIQNRNMGKPAQPALSREELEALFLPYDLKRLEMYSRNMVDYHLIMDMIPAISRIYFLNQLGDLALSAAQSALLLGIGLQHKSVDQLEKEIELPSGQLMGLFNRIIRKVVKLFNEVQEKAIEEQMVAAKDVVMEPTMKTLSDDLDEAAKEFQEKHKKEVGKLKSMDLSEYIIRGDDEEWNEVLNKAGPNASIISLKSDKKRKLEAKQEPKQSKKLKNRETKNKKDMKLKRKK [NAT10] | 1.83 | 1.3 | -2.26 | 0.692 | 49.8 °C | 52.1 °C
5 | MPFPVTTQGSQQTQPPQKHYGITSPISLAAPKETDCVLTQKLIETLKPFGVFEEEEELQRRILILGKLNNLVKEWIREISESKNLPQSVIENVGGKIFTFGSYRLGVHTKGADIDALCVAPRHVDRSDFFTSFYDKLKLQEEVKDLRAVEEAFVPVIKLCFDGIEIDILFARLALQTIPEDLDLRDDSLLKNLDIRCIRSLNGCRVTDEILHLVPNIDNFRLTLRAIKLWAKRHNIYSNILGFLGGVSWAMLVARTCQLYPNAIASTLVHKFFLVFSKWEWPNPVLLKQPEECNLNLPVWDPRVNPSDRYHLMPIITPAYPQQNSTYNVSVSTRMVMVEEFKQGLAITDEILLSKAEWSKLFEAPNFFQKYKHYIVLLASAPTEKQRLEWVGLVESKIRILVGSLEKNEFITLAHVNPQSFPAPKENPDKEEFRTMWVIGLVFKKTENSENLSVDLTYDIQSFTDTVYRQAINSKMFEVDMKIAAMHVKRKQLHQLLPNHVLQKKKKHSTEGVKLTALNDSSLDLSMDSDNSMSVPSPTSATKTSPLNSSGSSQGRNSPAPAVTAASVTNIQATEVSVPQVNSSESSGGTSSESIPQTATQPAISPPPKPTVSRVVSSTRLVNPPPRSSGNAATSGNAATKIPTPIVGVKRTSSPHKEESPKKTKTEEDETSEDANCLALSGHDKTEAKEQLDTETSTTQSETIQTAASLLASQKTSSTDLSDIPALPANPIPVIKNSIKLRLNR [PAPOLA] | 1.44 | 1.67 | 0.109 | -0.238 | 51.6 °C | 52 °C
6 | MLRWLIGGGREPQGLAEKSPLQTIGEEQTQNPYTELLVLKAHHDIVRFLVQLDDYRFASAGDDGIVVVWNAQTGEKLLELNGHTQKITAIITFPSLESCEEKNQLILTASADRTVIVWDGDTTRQVQRISCFQSTVKCLTVLQRLDVWLSGGNDLCVWNRKLDLLCKTSHLSDTGISALVEIPKNCVVAAVGKELIIFRLVAPTEGSLEWDILEVKRLLDHQDNILSLINVNDLSFVTGSHVGELIIWDALDWTMQAYERNFWDPSPQLDTQQEIKLCQKSNDISIHHFTCDEENVFAAVGRGLYVYSLQMKRVIACQKTAHDSNVLHVARLPNRQLISCSEDGSVRIWELREKQQLAAEPVPTGFFNMWGFGRVSKQASQPVKKQQENATSCSLELIGDLIGHSSSVEMFLYFEDHGLVTCSADHLIILWKNGERESGLRSLRLFQKLEENGDLYLAV [WDR41] | -1.29 | -1.46 | 0.0666 | -0.21 | 52.8 °C | 53.4 °C
7 | MSDTLTADVIGRRVEVNGEHATVRFAGVVPPVAGPWLGVEWDNPERGKHDGSHEGTVYFKCRHPTGGSFIRPNKVNFGTDFLTAIKNRYVLEDGPEEDRKEQIVTIGNKPVETIGFDSIMKQQSQLSKLQEVSLRNCAVSCAGEKGGVAEACPNIRKVDLSKNLLSSWDEVIHIADQLRHLEVLNVSENKLKFPSGSVLTGTLSVLKVLVLNQTGITWAEVLRCVAGCPGLEELYLESNNIFISERPTDVLQTVKLLDLSSNQLIDENQLYLIAHLPRLEQLILSDTGISSLHFPDAGIGCKTSMFPSLKYLVVNDNQISQWSFFNELEKLPSLRALSCLRNPLTKEDKEAETARLLIIASIGQLKTLNKCEILPEERRRAELDYRKAFGNEWKQAGGHKDPEKNRLSEEFLTAHPRYQFLCLKYGAPEDWELKTQQPLMLKNQLLTLKIKYPHQLDQKVLEKQLPGSMTIQKVKGLLSRLLKVPVSDLLLSYESPKKPGREIELENDLKSLQFYSVENGDCLLVRW [TBCE] | -0.0546 | 1.48 | 0.308 | -0.101 | 47.9 °C | 48.4 °C
8 | MASERLPNRPACLLVASGAAEGVSAQSFLHCFTMASTAFNLQVATPGGKAMEFVDVTESNARWVQDFRLKAYASPAKLESIDGARYHALLIPSCPGALTDLASSGSLARILQHFHSESKPICAVGHGVAALCCATNEDRSWVFDSYSLTGPSVCELVRAPGFARLPLVVEDFVKDSGACFSASEPDAVHVVLDRHLVTGQNASSTVPAVQNLLFLCGSRK [PDDC1] | -1.01 | -0.729 | 0.169 | -0.0189 | 55 °C | 55.4 °C
9 | MELRVGNKYRLGRKIGSGSFGDIYLGANIASGEEVAIKLECVKTKHPQLHIESKFYKMMQGGVGIPSIKWCGAEGDYNVMVMELLGPSLEDLFNFCSRKFSLKTVLLLADQMISRIEYIHSKNFIHRDVKPDNFLMGLGKKGNLVYIIDFGLAKKYRDARTHQHIPYRENKNLTGTARYASINTHLGIEQSRRDDLESLGYVLMYFNLGSLPWQGLKAATKRQKYERISEKKMSTPIEVLCKGYPSEFSTYLNFCRSLRFDDKPDYSYLRQLFRNLFHRQGFSYDYVFDWNMLKFGAARNPEDVDRERREHEREERMGQLRGSATRALPPGPPTGATANRLRSAAEPVASTPASRIQPAGNTSPRAISRVDRERKVSMRLHRGAPANVSSSDLTGRQEVSRIPASQTSVPFDHLGK [CSNK1E] | 0.572 | 0.264 | -0.212 | 0.102 | 49.7 °C | 49 °C
